Data reported in IntAct's records for PubMed 16462746.

B1: Rab5 GDP/GTP exchange factor (Bos taurus (Bovine)), O18973 (parent)
chain: MSLKSERRGIHVDQSELLCKKGCGYYGNPAWQGFCSKCWREEYHKARQKQIQEDWELAERLQREEEEAFASSQSSQGAQSLTFSKFEEKKTNEKTRKVTTVKKFFSASSRVGAKKAEIQEAKAPSPSINRQTSIETDRVSKEFIEFLKTFHKTGQEIYKQTKLFLEAMHYKRDLSIEEQSECTQDFYQNVAERMQTRGKVPPERVEKIMDQIEKYIMTRLYKYVFCPETTDDEKKDLAIQKRIRALHWVTPQMLCVPVNEEIPEVSDMVVKAITDIIEMDSKRVPRDKLACITKCSKHIFNAIKITKNEPASADDFLPTLIYIVLKGNPPRLQSNIQYITRFCNPSRLMTGEDGYYFTNLCCAVAFIEKLDAQSLNLSQEDFDRYMSGQTSPRKQESENWSPDACLGVKQMYKNLDLLSQLNERQERIMNEAKKLEKDLIDWTDGIAKEVQDIVEKYPLEIRPPNQSVAAIDSENVENDKLPPPLQPQVYAG

Variants of: B1
Conditions: with UBE2D3, P61077-1
Chain of UBE2D3, P61077-1 (P61077 whole entry): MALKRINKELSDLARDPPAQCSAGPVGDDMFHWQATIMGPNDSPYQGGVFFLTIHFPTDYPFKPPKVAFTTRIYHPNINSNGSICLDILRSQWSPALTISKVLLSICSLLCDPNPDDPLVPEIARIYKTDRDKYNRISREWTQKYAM

Variant	effect of a mutation on the interaction
Y25A;Y26A	disrupting interaction
